Laboratory results as given in patent US20170291955A1 (AstraZeneca / MedImmune, published 2017).

T1: human HER4 recombinant extracellular domain protein (human, UniProt Q15303 26-651)
T1 construct: extracellular domain
T1 sequence (looked up): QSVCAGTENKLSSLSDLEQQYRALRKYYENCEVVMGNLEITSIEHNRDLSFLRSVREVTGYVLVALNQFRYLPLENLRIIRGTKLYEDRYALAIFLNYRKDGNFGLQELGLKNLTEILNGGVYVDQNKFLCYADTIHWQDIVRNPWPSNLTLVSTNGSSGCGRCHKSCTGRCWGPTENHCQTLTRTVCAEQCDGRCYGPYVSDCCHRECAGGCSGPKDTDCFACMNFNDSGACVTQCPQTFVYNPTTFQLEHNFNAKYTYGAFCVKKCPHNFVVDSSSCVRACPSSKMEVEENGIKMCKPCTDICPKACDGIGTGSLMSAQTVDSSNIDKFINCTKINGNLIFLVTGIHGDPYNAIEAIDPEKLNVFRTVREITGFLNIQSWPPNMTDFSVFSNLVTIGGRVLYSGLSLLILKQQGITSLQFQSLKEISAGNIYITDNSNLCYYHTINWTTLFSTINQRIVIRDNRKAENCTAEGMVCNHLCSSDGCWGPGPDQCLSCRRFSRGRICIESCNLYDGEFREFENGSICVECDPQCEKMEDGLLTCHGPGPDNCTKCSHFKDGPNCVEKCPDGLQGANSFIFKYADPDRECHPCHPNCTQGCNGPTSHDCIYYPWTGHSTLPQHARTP


How the values were obtained:
[1] = target: T2, recombinant human HER2 extracellular domain protein (human, UniProt P04626 23-652); experiment: BIAcore (SPR), format not stated
[2] = target: T2, recombinant human HER2 extracellular …; experiment: BIAcore KD of 39S against the reported KD of 1.39.1
[3] = target: T3, human EGFR recombinant extracellular domain protein (human, UniProt P00533 25-645); experiment: capture ELISA on coated recombinant extracellular domain protein
T3 construct: extracellular domain
Protocol: (§1) Antibody to be tested was prepared by diluting in a stepwise 1:3 serial dilution ranging from 50 nM down to 0.28 pM and then added to the wells in duplicate. After one hour of incubation, plates were washed, and goat anti-human IgG Fab HRP-conjugated secondary antibody was added to each well and the plates were incubated for 1 hour. The plates were washed and TMB substrate was added and incubated for 5-20 min to allow color development. The stop solution was added to the wells at the end of reaction and the plates were read at 450 nm. Binding signal (absorbance at 450 nm) was plotted against antibody concentration using Prism software.

[4] = target: T4, human HER3 recombinant extracellular domain protein (human, UniProt P21860 20-643); experiment: as above
T4 construct: extracellular domain
Protocol: as §1

[5] = target: T1, human HER4 recombinant extracellular …; experiment: as above
Protocol: as §1

KO_146-208 = target: T5, KO_146-208 (human; mouse, UniProt P70424 169-231); experiment: SPR (ProteOn XPR36), variant captured by anti-Her2 polyclonal antibody, 39S injected
T5 construct: domain: counterpart of human amino acids 146-208
Protocol: (§2) The chimeric variant nomenclature denotes types of variants (KO/KI) and the number of domains swapped. […] The expression of the variants was monitored by anti-His polyclonal antibody using ProteOn™.
(§3) Standard amine coupling was used to immobilize an anti-human or mouse Her2 polyclonal antibody (R&D System) in 10 mM sodium acetate (pH 5.0) to the surface of a GLC biosensor chip at ˜5000 resonance units (RU) for each channel. The chimeric proteins in cell culture supernatant were injected and captured by anti-human or mouse polyclonal antibodies onto the GLC surface with a ˜200 RU response. […] The surface was regenerated twice by injecting glycine buffer (10 mM, pH 1.5) at 100 μL/min for 30 sec. All sensorgram data were processed with the ProteOn™ Manager 3.0.1 software.

KO_192-208 = target: T6, KO_192-208 (human; mouse, UniProt P70424 215-231); experiment: as above
T6 construct: domain: counterpart of human amino acids 192-208
Protocol: as §2, §3

KO_159-162 = target: T7, KO_159-162 (human; mouse, UniProt P70424 182-185); experiment: SPR (ProteOn XPR36), variant captured by anti-Her2 polyclonal antibody, 39S injected; apparent affinity
T7 construct: domain: counterpart of human amino acids 159-162
Protocol: as §2, §3

KO_171-187 = KO_171-187 (human; mouse, UniProt P70424 194-210); experiment: as above
Protocol: as §2, §3

KO_250-261 = target: T8, KO_250-261 (human; mouse, UniProt P70424 273-284); experiment: as above
T8 construct: domain: counterpart of human amino acids 250-261
Protocol: as §2, §3

KO_276-285 = target: T9, KO_276-285 (human; mouse, UniProt P70424 299-308); experiment: as above
T9 construct: domain: counterpart of human amino acids 276-285
Protocol: as §2, §3

KO_295-296 = target: T10, KO_295-296 (human; mouse, UniProt P70424 318-319); experiment: as above
T10 construct: domain: counterpart of human amino acids 295-296
Protocol: as §2, §3

[6] = target: Human Her2 (control of Table 4) (human, UniProt P04626 23-652); experiment: SPR (ProteOn XPR36), human Her2 captured by anti-Her2 polyclonal antibody, 39S injected; apparent affinity
Protocol: as §2, §3

human HER2 on cells = target: T11, human HER2 on cells (human, UniProt P04626 23-1255); experiment: FACS competition on BT-474 cells; competitor: fluorescently labelled 39S at 2 µg/mL; unlabelled antibody titrated
T11 construct: whole, on cells; also called HER2 on BT-474 cells; HER2 on T47D cells
Protocol: BT-474 cells were harvested, resuspended in FACS buffer, and 2.5×10⁵ cells/well were added to a 96-well U-bottom plate. […] After 1 hour of staining on ice, cells were washed 3 times with ice-cold FACS buffer and then fixed with 2% PFA. Cells were analyzed by a BD LSR II machine with BD FACSDiva™ software. Data were analyzed with FlowJo software and presented as mean MFI±SEM (n=3).

[7] = target: T12, mouse Her2 recombinant extracellular domain protein (mouse, UniProt P70424 23-653); experiment: capture ELISA on coated recombinant extracellular domain protein
T12 construct: extracellular domain
Protocol: as §1

Kd [1] [nM] | fold increase in binding affinity over the parental antibody (1.39.1) [2] [fold] | binding result (KO_146-208) | binding result (KO_192-208) | Kd (KO_159-162) [nM] | Kd (KO_171-187) [nM] | Kd (KO_250-261) [nM] | Kd (KO_276-285) [nM] | Kd (KO_295-296) [nM] | Kd [6] [nM] | IC50 (read off the curve) (human HER2 on cells) [ng/mL] | binding result [7] | Binder | binding result [3] | binding result [4] | binding result [5]
~1 | 2 | no binding | no binding | 0.101 | 0.038 | 0.187 | 0.106 | 0.0847 | 0.084 | ~3000 | – | 39S antibody (antibody, V domains shown, also called lead optimized 39S antibody (LO); anti-HER2 mAb 39S) VH: EVQLVESGGGLVKPGGSLRLSCAASGFTFSSYSMSWVRQAPGKGLEWVSSISSSSSYIYYADSVKGRFTISRDNAKNSLYLQMNSLRAEDTAVYYCARGGDAYNYYYFDYWGQGTLVTVSS VL: DIVMTQTPLSLSVTPGQPASISCKSSQSVFFRSNNKNILAWYLQKPGQPPQLLIYWASSRESGVPDRFSGSGSGTDFTLKISRVEAEDVGVYYCQQYFGSPFTFGPGTKVDIK | no binding (tested: 50 nM (highest concentration tested)) | no binding (tested: 50 nM (highest concentration tested)) | no binding (tested: 50 nM (highest concentration tested))
– | – | – | – | – | – | – | – | – | – | ~5000 | no binding | AZ1.39.1 (antibody, V domains shown) VH: EVQLVESGGGLVKPGGSLRLSCAASGFTFSSYSMNWVRQAPGKGLEWVSSISSSSSYIYYADSVKGRFTISRDNAKNSLYLQMNSLRAEDTAVYYCARGGDGYNYYYFDYWGQGTLVTVSS VL: DIVMTQSPDSLAVSLGERATITCKSSQSVFFRSNNKNCLAWYQQRPGQPPNLLIYWASSRESGVPDRFSGSGSGTDFALTISSLQTEDVAVYYCQQYFGSPFTFGPGTKVDIK | no binding | no binding | no binding
